Assay results published in publication PMC2151178.

Biological target: DdUnc104 (Dictyostelium Unc104), 245-kD kinesin (Dictyostelium discoideum (endogenous in wild-type cells)) (UniProt Q9NGQ2)
Assay: SEC + other: sucrose density gradient velocity sedimentation

DdUnc104 (Dictyostelium Unc104), 245-kD kinesin, Q9NGQ2 1-2205
stoichiometry N: 2
